Source: patent publication US20170145112A1 (Genentech, published 2017)

Molecular target: T1, Human complement Factor D, mature (human, UniProt P00746 27-253)
T1 construct: In the TR-FRET assay the factor D was bought from Complement Technology; In the hemolysis assay it was the factor D of C1q-depleted human serum; also called human Factor D; hFD
Test: SPR (Biacore T200): Fab captured with anti-huFab kit, human Factor D injected, 25 C, 1:1 model;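 also: sensorgrams were corrected by subtracting a blank injection of running buffer before fitting kinetic and affinity constants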
Experimental: Kinetics and binding constant KD for Factor D binding to immobilized hu20D12 versions was determined by surface plasmon resonance (SPR) measurements on a Biacore®T200 instrument. […] After subtraction of the sensorgram observed for injection of running buffer, data were analyzed according to a 1:1 model using BiaEval software v4.1 (GE Healthcare) to extract the kinetics and affinity constants.

T1 sequence (P00746 27-253): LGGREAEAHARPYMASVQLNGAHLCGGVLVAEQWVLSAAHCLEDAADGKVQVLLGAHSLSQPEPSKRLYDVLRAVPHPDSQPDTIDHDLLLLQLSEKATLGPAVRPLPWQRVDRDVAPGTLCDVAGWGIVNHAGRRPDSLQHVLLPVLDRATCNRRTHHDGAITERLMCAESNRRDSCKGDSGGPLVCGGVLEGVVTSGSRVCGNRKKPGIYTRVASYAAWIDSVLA

Kd [nM]	koff [s⁻¹]	kon [M⁻¹ s⁻¹]	Binder
0.143	0.0003	2.1e+06	hu20D12.v2.6 Fab (Fab, V domains shown) VH: EVQLVQSGAEVKKPGASVKVSCKASGYTFTSYYMYWVRQAPGQGLEWIGEINPTSGGTNFNEKFKSRATLTVDTSTSTAYLELSSLRSEDTAVYYCAREGGFAYWGQGTLVTVSS VL: DIQMTQSPSSLSASVGDRVTITCKASQNVDTDVAWFQQKPGKAPKGLISSASSRYSGVPSRFSGSGSGTDFTLTISSLQPEDFATYYCQQYNNYPLTFGQGTKVEIKR
0.185	0.0063	3.4e+07	hu20D12.v2.9 Fab (Fab, V domains shown) VH: EVQLVQSGAEVKKPGASVKVSCKASGYTFTSYYMYWVRQAPGQGLEWIGWINPTSGGTNFNEKFKSRATLTVDTSTSTAYLELSSLRSEDTAVYYCAREGGFAYWGQGTLVTVSS VL: DIQMTQSPSSLSASVGDRVTITCKASQNVDTDVAWFQQKPGKAPKGLIYSASSRYSGVPSRFSGSGSGTDFTLTISSLQPEDFATYYCQQYNNYPLTFGQGTKVEIKR
0.045	0.00079	1.7e+07	hu20D12.v2.5 Fab (Fab, V domains shown) VH: EVQLVQSGAEVKKPGASVKVSCKASGYTFTSYYMYWVRQAPGQGLEWIGEINPYSGGTNFNEKFKSRATLTVDTSTSTAYLELSSLRSEDTAVYYCAREGGFAYWGQGTLVTVSS VL: DIQMTQSPSSLSASVGDRVTITCKASQNVDTDVAWFQQKPGKAPKGLIYSASSRYSGVPSRFSGSGSGTDFTLTISSLQPEDFATYYCQQYNNYPLTFGQGTKVEIKR

Second part, the binder before the results:

Binder	Kd [nM]	koff [s⁻¹]	kon [M⁻¹ s⁻¹]
hu20D12.v2.2 Fab (Fab, V domains shown) VH: EVQLVQSGAEVKKPGASVKVSCKASGYTFTSYYMYWVRQAPGQGLEWIGEINPTSGDTNFNEKFKSRATLTVDTSTSTAYLELSSLRSEDTAVYYCAREGGFAYWGQGTLVTVSS VL: DIQMTQSPSSLSASVGDRVTITCKASQNVDTDVAWFQQKPGKAPKGLIYSASSRYSGVPSRFSGSGSGTDFTLTISSLQPEDFATYYCQQYNNYPLTFGQGTKVEIKR	0.065	0.00095	1.5e+07
hu20D12.v2.4 Fab (Fab, V domains shown) VH: EVQLVQSGAEVKKPGASVKVSCKASGYTFTSYYMYWVRQAPGQGLEWIGEINPTSGETNFNEKFKSRATLTVDTSTSTAYLELSSLRSEDTAVYYCAREGGFAYWGQGTLVTVSS VL: DIQMTQSPSSLSASVGDRVTITCKASQNVDTDVAWFQQKPGKAPKGLIYSASSRYSGVPSRFSGSGSGTDFTLTISSLQPEDFATYYCQQYNNYPLTFGQGTKVEIKR	0.028	0.00049	1.7e+07
hu20D12.v2.7 Fab (Fab, V domains shown) VH: EVQLVQSGAEVKKPGASVKVSCKASGYTFTSYYMYWVRQAPGQGLEWIGEINPTSGGTNFNEKFKSRATLTVDTSTSTAYLELSSLRSEDTAVYYCAREGGFAYWGQGTLVTVSS VL: DIQMTQSPSSLSASVGDRVTITCKASQNVDTDVAWFQQKPGKAPKGLIKSASSRYSGVPSRFSGSGSGTDFTLTISSLQPEDFATYYCQQYNNYPLTFGQGTKVEIKR	0.049	0.00055	1.1e+07
hu20D12.v2.8 Fab (Fab, V domains shown) VH: EVQLVQSGAEVKKPGASVKVSCKASGYTFTSYYMYWVRQAPGQGLEWIGEINPTSGGTNFNEKFKSRATLTVDTSTSTAYLELSSLRSEDTAVYYCAREGGFAYWGQGTLVTVSS VL: DIQMTQSPSSLSASVGDRVTITCKASQNVDTDVAWFQQKPGKAPKGLIQSASSRYSGVPSRFSGSGSGTDFTLTISSLQPEDFATYYCQQYNNYPLTFGQGTKVEIKR	0.061	0.004	6.6e+07
hu20D12.v2.10 Fab (Fab, V domains shown) VH: EVQLVQSGAEVKKPGASVKVSCKASGYTFTSYYMYWVRQAPGQGLEWIGEINPTSGGTNFNEKFKSRATLTVDTSTSTAYLELSSLRSEDTAVYYCAREGGFAYWGQGTLVTVSS VL: DIQMTQSPSSLSASVGDRVTITCKASQNVDTDVAWFQQKPGKAPKGLIYSASSRKSGVPSRFSGSGSGTDFTLTISSLQPEDFATYYCQQYNNYPLTFGQGTKVEIKR	6	0.03	5e+06
